{"source": "paper PMC4484435", "about": "(2015)", "binders": {"B1": {"name": "Leucine-rich α2-glycoprotein (natural protein)", "chain": "LKECLILQSAEGSTVSCHGPTEFPSSLPADTVHLSVEFSNLTQLPAAALQGCPGLRELHLSSNRLQALSPELLAPVPRLRALDLTRNALRSLPPGLFSTSANLSTLVLRENQLREVSAQWLQGLDALGHLDLAENQLSSLPSGLLASLGALHTLDLGYNLLESLPEGLLRGPRRLQRLHLEGNRLQRLEDSLLAPQPFLRVLFLNDNQLVGVATGSFQGLQHLDMLDLSNNSLSSTPPGLWAFLGRPTRDMQDGFDISHNPWICDKNLADLCRWLVANRNKMFSQNDTRCAGPEAMKGQRLLDVAELGSL"}}, "target": "transforming growth factor beta 1 (UniProt P01137 279-390)", "sequence (P01137 279-390)": "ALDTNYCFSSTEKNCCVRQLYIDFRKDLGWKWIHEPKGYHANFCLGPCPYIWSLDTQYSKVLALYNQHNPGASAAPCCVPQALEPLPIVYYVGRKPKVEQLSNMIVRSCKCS", "assay": "SPR", "data": [{"binder": "B1", "values": [{"measurement": "koff", "value": 0.0589, "unit": "s⁻¹"}]}]}
